Reference: patent publication US12576129B2, “Anthelmintic compositions and methods” (priority 2016, dated 2026)

Legend:
[1] = system: Heligmosomoides polygyrus; assay: Heligmosomoides polygyrus infection in STAT6-/- mice; assay type: in vivo; settings: immunosuppressed mice lacking STAT6
Excerpt: Such a result is not surprising given that Cry5B directly intoxicates STH parasites in vitro. This is not true of all anthelmintics, e.g., DEC and in some cases ivermectin, for which it appears that involvement of the immune system is important for their mechanism of action. To confirm that the immune system is not essential for Cry5B action, STAT6−/− mice were infected with Heligmosomoides polygyrus STH parasites. STAT6 is required for the TH2 response required for normal expulsion of STH parasites.

Ancylostoma caninum = Ancylostoma caninum hookworm infection in dogs (fecal egg count, capsule endoscopy); assay type: in vivo
Method: Two beagles were inoculated per os with 1000 Ancylostoma caninum larvae. Forty one days post-infection, stool was collected for determination of fecal egg loads and the dog intestines were imaged using capsule endoscopy to count hookworms (Lee, A., et al. Int. J. Parasitol. 41, 1377-1383, 2011). One dose of Cry5B SCL (˜40 mg/kg) was given by gavage on each of day 42 and 44 post-infection. On day 49 post-infection a final fecal egg count was taken and capsule endoscopy repeated for final hookworm counts.

[2] = system: Ancylostoma ceylanicum hookworms; settings: hamsters; purified protein at 10 mg/kg; previously published data (ref 14); cited from earlier work
[3] = system: Ancylostoma ceylanicum hookworms; assay: A. ceylanicum hookworm curative experiment in Syrian hamsters (worm burdens, fecal egg counts); assay type: in vivo
Method: Studies of Ancylostoma ceylanicum hookworms in Syrian hamsters were carried out as previously described (Hu, Y., et al. PLoS One, 8, e70702, 2013; Hu, Y., et al. Appl Environ Microbiol, 79, 5527-5532, 2013). Briefly, 4-6 week old male hamsters were infected with 150 infectious third staged larvae per os. On day 17 post-infection, an overnight collection of stool is taken and fecal egg counts (FECs) taken the next day. The hamsters are assigned to groups based on FEC so that there is roughly the same level of infection (same average egg per gram of feces or EPG) in all groups. On day 18 post-infection, the hamsters are weighed for dosing purposes and then gavaged with treatments as described in each experiment. On day 21 post-infection, another overnight collection of stool is taken for FECs. On day 22 post-infection, the animals were euthanized. Total hookworms in the small intestine were counted and EPGs calculated.
For all experiments involving cimetidine, hamsters or mice were pre-gavaged with 200 μL of an 8.75% cimetidine solution 15 minutes prior to therapeutic treatment (Stepek, G., et al. Parasitology, 134, 103-112, 2007).
For in vivo curative experiments, male hamsters were infected per os with 150 A. ceylanicum infectious larvae. On day 17 postinoculation (p.i.), a fecal sample was collected from each hamster, and the number of eggs was counted using the modified McMaster technique (13). On the basis of these fecal egg counts, the hamsters were segregated to ensure that the groups (control and treatment) had roughly equivalent infection levels. […] The hamsters were sacrificed on day 22 p.i., and intestinal parasite burdens were determined as described previously (14). The one-tailed Mann-Whitney test was performed to compare the two groups for significance in the experiment using a dose of 10 mg/kg of body weight (data were calculated and plotted using Prism 5 [GraphPad Software Inc., La Jolla, CA]). […]

[4] = Average of dogs (n = 2), 40 mg/kg
[5] = dogs (n = 2), post- vs pre-treatment, 40 mg/kg

B1: Cry5B: Bacillus thuringiensis crystal (Cry) protein Cry5B, SEQ ID NO:1; purified full-length protein (protein, listed as Bacillus thuringiensis)
chain: MATINELYPVPYNVLAHPIKEVDDPYSWSNLLKGIQEGWEEWGKTGQKKLFEDHLTIAWNLYKTGKLDYFALTKASISLIGFIPGAEAAVPFINMFVDFVWPKLFGANTEGKDQQLFNAIMDAVNKMVDNKFLSYNLSTLNKTIEGLQGNLGLFQNAIQVAICQGSTPERVNFDQNCTPCNPNQPCKDDLDRVASRFDTANSQFTQHLPEFKNPWSDENSTQEFKRTSVELTLPMYTTVATLHLLLYEGYIEFMTKWNFHNEQYLNNLKVELQQLIHSYSETVRTSFLQFLPTLNNRSKSSVNAYNRYVRNMTVNCLDIAATWPTFDTHNYHQGGKLDLTRIILSDTAGPIEEYTTGDKTSGPEHSNITPNNILDTPSPTYQHSFVSVDSIVYSRKELQQLDIATYSTNNSNNCHPYGLRLSYTDGSRYDYGDNQPDFTTSNNNYCHNSYTAPITLVNARHLYNAKGSLQNVESLVVSTVNGGSGSCICDAWINYLRPPQTSKNESRPDQKINVLYPITETVNKGTGGNLGVISAYVPMELVPENVIGDVNADTKLPLTQLKGFPFEKYGSEYNNRGISLVREWINGNNAVKLSNSQSVGIQITNQTKQKYEIRCRYASKGDNNVYFNVDLSENPFRNSISFGSTESSVVGVQGENGKYILKSITTVEIPAGSFYVHITNQGSSDLFLDRIEFVPKIQFQFCDNNNLHCDCNNPVDTDCTFCCVCTSLTDCDCNNPRGLDCTLCCQVENQLPSFVTLTDLQNITTQVNALVASSEHDTLATDVSDYEIEEVVLKVDALSGEVFGKEKKALRKLVNHTKRLSKARNLLIGGNFDNLDAWYRGRNVVNVSDHELFKSDHVLLPPPTLYSSYMFQKVEESKLKANTRYTVSGFIAHAEDLEIVVSRYGQEVKKVVQVPYGEAFPLTSRGAICCPPRSTSNGKPADPHFFSYSIDVGTLDVEANPGIELGLRIVERTGMARVSNLEIREDRPLKKNELRNVQRAARNWRTAYDQERAEVTALIQPVLNQINALYENEDWNGAIRSGVSYHDLEAIVLPTLPKLNHWFMSDMLGEQGSILAQFQEALDRAYTQLEESTILHNGHFTTDAANWTIEGDAHHAILEDGRRVLRLPDWSSSVSQTIEIENFDPDKEYQLVFHAQGEGTVSLQHGEEGEYVETHPHKSANFTTSHRQGVTFETNKVTVEITSEDGEFLVDHIALVEAPLPTDDQSSDGNTTSNTNSNTSMNNNQ
modifications: source = /note="Bacillus thuringiensis pesticidal crystal (Cry)"
[1]
  efficacy against H. polygyrus: effective
Ancylostoma caninum; Average of dogs (n = 2)
  Fecal Egg Count Pre-Treatment: 12581 EPG of Feces
  Hookworm Burden Pre-Treatment: 70
Ancylostoma caninum; [4]
  Fecal Egg Count Post-Treatment: 1081.5 EPG of Feces
  Hookworm Burden Post-Treatment: 3.5
Ancylostoma caninum; Dog 1, capsule endoscopy, day 41 post-infection
  Hookworm Burden Pre-Treatment: 84
Ancylostoma caninum; Dog 1, capsule endoscopy, day 49, ~40 mg/kg on days 42 and 44
  Hookworm Burden Post-Treatment: 4
Ancylostoma caninum; Dog 1, day 41 post-infection
  Fecal Egg Count Pre-Treatment: 15750 EPG of Feces
Ancylostoma caninum; Dog 1, day 49 post-infection, ~40 mg/kg by gavage on days 42 and 44
  Fecal Egg Count Post-Treatment: 1590 EPG of Feces
Ancylostoma caninum; Dog 2, capsule endoscopy, day 41 post-infection
  Hookworm Burden Pre-Treatment: 56
Ancylostoma caninum; Dog 2, capsule endoscopy, day 49, ~40 mg/kg on days 42 and 44
  Hookworm Burden Post-Treatment: 3
Ancylostoma caninum; Dog 2, day 41 post-infection
  Fecal Egg Count Pre-Treatment: 9412 EPG of Feces
Ancylostoma caninum; Dog 2, day 49 post-infection, ~40 mg/kg by gavage on days 42 and 44
  Fecal Egg Count Post-Treatment: 573 EPG of Feces
Ancylostoma caninum; [5]
  % Reduction of Fecal Egg Count: 91.4%
  % Reduction of Hookworm Burden: 95%
Ancylostoma caninum; ~40 mg/kg by gavage on days 42 and 44 post-infection
  efficacy against A. caninum in dogs: highly effective
[2]
  hookworm burden reduction: 65%
[3]; A. ceylanicum infections in hamsters, 10 mg/kg, This Example
  % Parasite reduction: 93%
[3]; hamsters
  efficacy after pre-exposure to two doses of Cry5B prior to infection: not altered
[3]; hamsters pre-gavaged with cimetidine (and NaHCO3) before treatment
  effect of pre-neutralization of stomach acid on efficacy: improved
